Measured values from patent US8492329B2, “Bioactive peptides and methods of using same” (Compugen Ltd., priority 2007, dated 2013).
“Also recorded” adds a separate entry of the source. No end group written: not given here.

Legend:
Type in all cases: cell-based
LGR7 (RXFP1) = molecular target: T1, LGR7 (RXFP1) (Homo sapiens, UniProt Q9HBX9); assay: ACEA RT-CES cell impedance, LGR7 transfected CHO-K1 cells; design: expressed in transfected cells; host or cells: CHO-K1 (transient); conditions: for dose response of normalized cell index: end point of the experiment, FIG. 16-19; for affinity to LGR7 compared with other ligands: from cell impedance dose response; for effect on cell impedance (normalized cell index): P74C13V 10 uM, H2 Relaxin 1 uM, FIG. 13
T1 sequence (Q9HBX9 1-757): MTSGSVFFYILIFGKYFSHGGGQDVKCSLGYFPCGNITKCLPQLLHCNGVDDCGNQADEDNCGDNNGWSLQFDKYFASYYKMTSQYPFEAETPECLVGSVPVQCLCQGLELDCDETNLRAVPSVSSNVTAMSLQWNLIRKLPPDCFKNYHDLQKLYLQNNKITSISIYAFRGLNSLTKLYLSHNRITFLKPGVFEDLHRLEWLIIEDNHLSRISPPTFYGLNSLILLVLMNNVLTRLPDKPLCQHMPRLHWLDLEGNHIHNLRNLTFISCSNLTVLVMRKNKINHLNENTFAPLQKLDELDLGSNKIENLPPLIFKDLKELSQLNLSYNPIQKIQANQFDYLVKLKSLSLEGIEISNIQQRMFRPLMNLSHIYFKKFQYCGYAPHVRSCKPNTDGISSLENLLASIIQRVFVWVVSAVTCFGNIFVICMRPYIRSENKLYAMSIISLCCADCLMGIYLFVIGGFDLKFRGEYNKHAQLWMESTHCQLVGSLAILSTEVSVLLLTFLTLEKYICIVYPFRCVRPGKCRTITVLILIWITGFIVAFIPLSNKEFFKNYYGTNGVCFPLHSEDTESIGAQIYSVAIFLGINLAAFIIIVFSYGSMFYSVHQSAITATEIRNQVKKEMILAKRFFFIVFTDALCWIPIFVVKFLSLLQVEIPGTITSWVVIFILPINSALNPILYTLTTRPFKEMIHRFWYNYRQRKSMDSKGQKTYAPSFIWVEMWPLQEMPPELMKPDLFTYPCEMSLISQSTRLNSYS
Text: ACEA RT-CES screen is a noninvasive and label-free assay for GPCRs that can be used with both engineered and nonengineered cell lines. The assay is based on using cell-electrode impedance to measure minute changes in cellular morphology as a result of ligand-dependent GPCR activation and is described in Naichen Yu, et al., Anal. Chem., 78 (1), 35-43, 2006. 10.1021/ac051695v S0003-2700(05)01695-1. The Rho family of small GTPases, which include Rho, Rac, and CDC42, are well-characterized effectors of oncogenes, growth factor and adhesion-mediated signaling pathways and are not classically thought of as being key effectors for GPCRs. Rho family GTPases participate in a number of cellular processes, the main one being regulation and maintenance of specific structures within the actin cytoskeleton framework. […] The current view of the actin cytoskeleton is that of a dynamic and plastic system that is a reflection and manifestation of the intracellular signaling and not simply a static structure designed to maintain cellular architecture. Since GPCRs couple to the actin cytoskeletal network and induce very defined morphological changes, it is possible to harness this information as a functional and biologically relevant readout for GPCRs.
ACEA biosciences; has designed electronic cell sensor arrays embedded in the bottom of the well of microtiter plates that are capable of measuring minute changes in cell morphology. The electronic sensors measure changes in cell-substrate impedance as a result of the disruption of the ionic environment due to the presence of cell and cell morphology dynamics. The main advantages offered by using cell-substrate impedance and cell morphology as a readout are that both exogenously expressed and endogenous receptors can be assayed without the need for engineering the cell with promiscuous G proteins and reporters or labeling the cells with dyes. In addition, since the readout is noninvasive, multiple stimulations with the same ligand or different ligands can be performed to assess events such as desensitization and receptor cross-talk. Finally, another major aspect of using cell-substrate impedance and cell morphology as a readout is that potentially all GPCRs, regardless of the signaling pathways, can be functionally monitored.
Peptides were synthesized by the solid phase peptide synthesis (SPPS) method, cleaved from the resin, and purified by RP-HPLC unless stated otherwise. The peptide's identity was verified by mass spectrometry. Final purity of peptide was >90% as measured by RP-HPLC. Peptides were diluted in Water (DDW—high purity) containing 0.1% BSA. In some cases peptides were dissolved in Tris-HCl buffer (pH8.2). In other cases either the addition of 1% DMSO or a brief sonication was required. All plates were stored at −80 C until use.
Cells: CHOk1 cell-line (ATCC CCL-61). Cells were maintained and propagated in F-12 HAM nutrient mix (Gibco. Cat# 21765-029) supplemented with 10% HI-FBS (Biological Ind. Cat#04-121-1), 2.5 mL of 200 mm L-Glutamine in Saline Solution (Biological Ind. Cat#03-020-1), 5 mL of Penicillin-Streptomycin Solution 10000/mL Penicillin G & 10 mg/mL Streptomycin Sulfate (Biological Ind. Cat#03-031-1).
One day before the transfection 2×10^6 CHO-k1 cells were plated in T75 flask containing 10 mL of complete growth medium. On the transfection date, FUGENE6 transfection reagent was warmed to ambient temperature by 15 minutes incubation at room temperature and mixed prior to use by vortex.
The transfected DNA mix was prepared in another sterile microfuge tube; Total of 2 μg plasmid DNA mixture which is composed of […] of the target GPCR plasmid and of 2 μg of pIRES plasmid carrying eGFP reporter gene.
The plasmids DNA mixture was then added to the transfection reagent tube and incubated 35 min at RT with gently tapping once every 5 minutes to mix the contents. The DNA-FuGene complex was added drop wise to flask and spread by gentle swirling. […]

LGR4 = molecular target: T2, LGR4 (Homo sapiens, UniProt Q9BXB1); assay: ACEA RT-CES cell impedance, LGR4 transfected CHO-K1 cells; conditions: P74C13V 10 uM, H2 Relaxin 1 uM, FIG. 15
T2 construct: expressed in transfected cells; host or cells: CHO-K1 (transient)
Text: (§1) ACEA RT-CES screen is a noninvasive and label-free assay for GPCRs that can be used with both engineered and nonengineered cell lines. The assay is based on using cell-electrode impedance to measure minute changes in cellular morphology as a result of ligand-dependent GPCR activation and is described in Naichen Yu, et al., Anal. Chem., 78 (1), 35-43, 2006. 10.1021/ac051695v S0003-2700(05)01695-1. The Rho family of small GTPases, which include Rho, Rac, and CDC42, are well-characterized effectors of oncogenes, growth factor and adhesion-mediated signaling pathways and are not classically thought of as being key effectors for GPCRs. […] Since GPCRs couple to the actin cytoskeletal network and induce very defined morphological changes, it is possible to harness this information as a functional and biologically relevant readout for GPCRs.
(§2) ACEA biosciences; has designed electronic cell sensor arrays embedded in the bottom of the well of microtiter plates that are capable of measuring minute changes in cell morphology. […] The main advantages offered by using cell-substrate impedance and cell morphology as a readout are that both exogenously expressed and endogenous receptors can be assayed without the need for engineering the cell with promiscuous G proteins and reporters or labeling the cells with dyes. […]

GPR39 = molecular target: T3, GPR39 (Homo sapiens, UniProt O43194); assay: ACEA RT-CES cell impedance, GPR39 transfected CHO-K1 cells; conditions: P74C13V 10 uM, H2 Relaxin 1 uM, FIG. 12
T3 construct: expressed in transfected cells; host or cells: CHO-K1 (transient, FuGENE6; pIRES-eGFP co-transfected)
T3 sequence (O43194 1-453): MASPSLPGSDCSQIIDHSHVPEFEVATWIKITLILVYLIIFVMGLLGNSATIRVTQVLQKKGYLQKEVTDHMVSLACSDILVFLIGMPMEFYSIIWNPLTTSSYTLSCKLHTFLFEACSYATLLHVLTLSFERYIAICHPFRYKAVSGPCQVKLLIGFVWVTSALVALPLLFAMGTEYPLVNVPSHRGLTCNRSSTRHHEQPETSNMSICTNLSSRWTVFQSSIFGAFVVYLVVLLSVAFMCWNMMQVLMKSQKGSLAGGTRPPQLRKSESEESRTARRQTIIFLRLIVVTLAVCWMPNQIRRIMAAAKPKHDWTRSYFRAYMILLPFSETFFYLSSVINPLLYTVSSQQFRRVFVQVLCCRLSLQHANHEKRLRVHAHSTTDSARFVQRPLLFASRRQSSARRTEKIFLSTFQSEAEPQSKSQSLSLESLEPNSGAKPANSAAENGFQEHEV
Text: as §1, §2

Substance | dose response of normalized cell index (LGR7 (RXFP1)) | affinity to LGR7 compared with other ligands (LGR7 (RXFP1)) | effect on cell impedance (normalized cell index) (LGR4) | effect on cell impedance (normalized cell index) (LGR7 (RXFP1)) | effect on cell impedance (normalized cell index) (GPR39)
GQKGQVGPPGAAVRRAYAAFSV [Peptide P59C13V] | moderate dose response for the high concentrations; also recorded: mild dose dependent activation | significantly lower than that of H2 Relaxin or P74C13V |  |  | 
AYAAFSV-Amide (AYAAFSV-NH2) [Peptide P59-S-Amide] | moderate dose response for the high concentrations; also recorded: no dose response was demonstrated |  |  |  | 
GQKGQVGPPGAAVRRAYAAFSVGRRAYAAFSV-OH [Peptide P74C13V] | clear dose dependent activation | lower than that of H2 Relaxin | moderate effect | stronger than the effect of H2 Relaxin | moderate yet visible effect
H2 Relaxin: H2 Relaxin (ACS), positive control, known ligand of LGR7 (RXFP1) [reference compound] | clear dose dependent activation |  | much stronger effect | capable of activating a cellular response | moderate yet visible effect
